One molecule from patent US7211422B2, “Polypeptide having α-isomaltosylglucosaccharide synthase activity” (Kabushiki Kaisha Hayashibara Seibutsu Kagaku Kenkyujo, priority 2001, dated 2007) can be followed below.

Data set [1] is described as follows: Thermal stability and pH stability (residual enzyme activity). The class given is physicochemical. Conditions: 20 mM Glycine-NaOH buffer pH 8.0, 60 minutes. The procedure:
The thermal stability of the polypeptide having α-isomaltosylglucosaccharide-forming enzyme activity was determined by incubating the testing polypeptide solution in 20 mM acetate buffer, pH6.0 (in the case of the polypeptide from a strain A19, 20 m M Glycine-NaOH buffer, pH 8.0) at prescribed temperatures for 60 minutes in the presence or absence of 1 mM Ca^2+, cooling with water the resulting polypeptide solutions, and assaying the residual enzyme activity of each solution. The pH stability of the polypeptide having α-isomaltosylglucosaccharide-forming enzyme activity was determined by keeping the testing polypeptide solutions in 50 mM buffer having prescribed pHs at 4° C. for 24 hours, adjusting the pH of each solution to 6.0 (in the case of the polypeptide from a strain A19, pH 8.0), and assaying the residual enzyme activity of each solution. […] The thermal stability of the polypeptide having α-isomaltosylglucosaccharide-forming enzyme activity from a strain C11 was up to about 40° C. (in the absence of Ca^2+) and about 45° C. (in the presence of Ca^2+), and pH stability of about 5.0 to about 10.0. The thermal stability of the polypeptide having α-isomaltosylglucosaccharide-forming enzyme activity from a strain N75 was up to about 45° C. (in the absence of Ca^2+) and about 50° C. (in the presence of Ca^2+), and pH stability of about 5.0 to about 9.0. The thermal stability of the polypeptide having α-isomaltosylglucosaccharide-forming enzyme activity from a strain A19 was up to about 55° C. (in the absence of Ca^2+) and about 60° C. (in the presence of Ca^2+), and pH stability of about 5.0 to about 9.0.

The nature of data set [2]: Effect of temperature and pH on α-isomaltosylglucosaccharide-forming enzyme activity. The class given is biochemical. As to conditions: for Optimum temperature: pH 8.4 for 60 minutes. The procedure:
The two types of enzymatic activities described above were measured as following. The activity of α-isomaltosylglucosaccharide-forming enzyme was measured by the following assay: A substrate solution was prepared by dissolving maltotriose in 100 mM acetate buffer (pH 6.0) to give a concentration of 2% (w/v). A reaction mixture was prepared by mixing 0.5 ml of the substrate solution and 0.5 ml of an enzyme solution, and incubated at 35° C. for 60 minutes. After stopping the reaction by boiling for 10 minutes, the amount of maltose formed in the reaction mixture was determined by high-performance liquid chromatography (HPLC). One unit of α-isomaltosylglucosaccharide-forming activity was defined as the amount of the enzyme that forms one μmole of maltose per minute under the above conditions. HPLC was carried out using “SHODEX KS-801 column”, Showa Denko K. K., Tokyo, Japan, at a column temperature of 60° C. and a flow rate of 0.5 ml/minutes of water, and using “RI-8012”, a differential refractometer commercialized by Tosoh Corporation, Tokyo, Japan.
The effect of temperature and pH on the α-isomaltosylglucosaccharide-forming enzyme activity was examined in accordance with the assay for the α-isomaltosylglucosaccharide-forming enzyme activity under various temperature and pH conditions. The effect of temperature was conducted in the presence or absence of 1 mM Ca^2+. […] The optimum temperature of the polypeptide having α-isomaltosylglucosaccharide-forming enzyme activity from a strain C11 was about 45° C. (in the absence of Ca^2+) and about 50° C. (in the presence of Ca^2+) when incubated at pH 6.0 for 60 minutes, and the optimum pH was about 6.0 when incubated at 35° C. for 60 minutes. The optimum temperature of the polypeptide having α-isomaltosylglucosaccharide-forming enzyme activity from a strain N75 was about 50° C. (in the absence of Ca^2+) and about 55° C. (in the presence of Ca^2+) when incubated at pH 6.0 for 60 minutes, and the optimum pH was about 6.0 when incubated at 35° C. for 60 minutes. The optimum temperature of the polypeptide having α-isomaltosylglucosaccharide-forming enzyme activity from a strain A19 was about 60° C. (in the absence of Ca^2+) and about 65° C. (in the presence of Ca^2+) when incubated at pH 8.4 for 60 min, and the optimum pH was about 8.4 when incubated at 35° C. for 60 minutes.

The nature of data set [3]: Isoelectric point by isoelectrophoresis (2% ampholine gel). The class given is physicochemical. Conditions: gel containing 2% (w/v) ampholine. An excerpt:
Purified specimens of the polypeptide having α-isomaltosylglucosaccharide-forming enzyme activity from Bacillus globisporus C11 obtained by the method in Experiment 1-3, Bacillus globisporus N75 obtained by the method in Experiment 2–3, and Arthrobacter globiformis A19 obtained by the method in Experiment 3-3 were subjected to isoelectrophoresis using a gel containing 2% (w/v) ampholine commercialized by Amersham Biosciences K. K., Tokyo, Japan (old name, Amersham Pharmacia Biotech), and then measured pHs of protein bands and gel to determine their isoelectric points.

Data set [4] is described as follows: Test on reducing-power formation. Format: biochemical. As to conditions: 1% (w/v) maltotetraose, 0.25 unit/g substrate, 35° C., pH 6.0 (pH 8.4 for A19). The procedure: The following test was carried out to study whether the polypeptide having α-isomaltosylglucosaccharide-forming enzyme activity had the ability of forming reducing-power or not. To a 1% (w/v) aqueous solution of maltotetraose as a substrate was added 0.25 unit/g substrate, d.s.b., of either of purified polypeptide specimen of α-isomaltosylglucosaccharide-forming enzyme from Bacillus globisporus C11 obtained by the method in Experiment 1-3, Bacillus globisporus N75 obtained by the method in Experiment2-3, or Arthrobacter globiformis A19 obtained by the method in Experiment 3-3, and incubated at 35° C. and at pH 6.0, except that pH 8.4 was used for the enzyme from Arthrobacter globiformis A19. During the reaction, a portion of each reaction mixture was sampled at prescribed time intervals and measured for reducing power after keeping at 100° C. for 10 minutes to stop the enzymatic reaction. Before and after the enzymatic reaction, the reducing sugar content and total sugar content were respectively quantified by the Somogyi-Nelson method and anthrone-sulfuric acid method. The percentage of forming reducing power was calculated by the following equation: Percentage of forming reducing power (%)=(AR/AT−BR/BT)×100 Equation: • AR: Reducing sugar content after enzymatic reaction. • AT: Total sugar content after enzymatic reaction. • BR: Reducing sugar content before enzymatic reaction. • BT: Total sugar content before enzymatic reaction.

B1: Enzyme of Strain A19: purified polypeptide having α-isomaltosylglucosaccharide-forming enzyme activity from Arthrobacter globiformis A19 (Experiment 3-3); contains SEQ ID NO: 3 (protein)
chain: APLGVQRAQFQSGSSYLVVEVLDDDLVHFELAGGGTAPGTGSPLFTTPQVAKHDYAGPDVFTQTGSVLQTAAMRIEVDPADLCVTATDITRTPNLVLHEACPADLGQAWKGLNITRSAMENAYGLGQQFFTGGSADGDWVGRTRTPGGTYGNAMVFDPENGPVGNTQIPVLFAVGDDNANYGLFVDQLYKQEWNLTGDPWTVRMWGDQVRWYLMSGDDLPDLRHDYMELTGTPPVPPKKAFGLWVSEFGYDNWSEVDNTIAGLRSADFPVDGAMLDVQWFGGVTADSDDTRMGTLDWDTSRFPDPAGKIADLAEDGVGIIPIEESYVGRNLPEHARMAADGYLVRSGCATCPPVYLTGNPWWGKGGMIDWTQPEAGAVWHDEQRQHLVDEGVLGHWLDLGEPEMYDPNDWTAGVIPGKHAHADYHNAYNLLWAQSIADGYADNGVQKRPFMLTRAAAAGIQRHGAGMWSADIGSTMKALGSQQNAQMHMSMSGIDYYGSDIGGFRREMADGDVNELYTQWFADSAWFDTPLRPHTDNLCNCLETSPDSIGDVASNRENLVRRYELAPYYYSLAHRAHQFGEPLAPPLVYYYQNDDHVREMGHQKMLGRDLLIAIVAGEGERERDVYLPAGEWIDIHTNERIQSTGQWIDNVPLWRDGVFTLPAYARAGAIIPKAFVDASTKDITGKREDAAVRNELIATVYADDVASDFTLYEDDGATTAYADGAVRTTQISQSLTNGVATVTVGAASGTYSGAPSTRPTVVELVTDGTQASTVSLGSVPLTEHANKAAFDAASSGWYNAGGGLVVAKAASSSVNTAKTFSFTLGEESVWATFSCENATTTFGQSVYVVGNVPQLGNWSPADAVKLEPSAYPTWTGVVRNLPPSSTVEWKCIKRQEAGLPNTADAWEPGGNNILSTPPSGSAGITTGAF
modifications: Arthrobacter globiformis A19
For the molecule B1, the Thermal stability entry was “up to 55 °C” in data set [1] (in the absence of Ca2+) and not above 60 °C in data set [1] (in the presence of 1 mM Ca2+). In addition, the figures for the Optimum temperature result in data set [2] (in the absence of Ca2+) and in data set [2] (in the presence of 1 mM Ca2+) were “about 60 °C” and “about 65 °C”, respectively. Besides, the “Optimum pH” value in data set [2] (incubated at 35° C. for 60 minutes) is “about 8.4”. Moreover, the Isoelectric point result in data set [3] is listed as “about 4.3±0.5”. Besides, the “Percentage of forming reducing power” value in data set [4] (reaction time 0 hour) is 0.0%; in data set [4] (reaction time 1 hour), 0.0%; in data set [4] (reaction time 2 hours), 0.1%; in data set [4] (reaction time 4 hours), 0.0%; in data set [4] (reaction time 8 hours) it was 0.1%.
